Legend:
[1] = target: N-terminal 6xHis-tagged HsCPAP^897−1338 (human) (UniProt Q9HC77); assay: SEC + other: negative-stain electron microscopy (single particle, 3D map); SEC (Superdex 200 10/300) peak fraction at an apparent MW of ~208 kDa, buffer H-300 (300 mM NaCl), 4°C; barrel-like particles, 23 Å map; putative tetramer (dimer of dimers)
[2] = target: N-terminal 6xHis-tagged HsCPAP^897−1338 (human) (UniProt Q9HC77); assay: SEC + other: negative-stain electron microscopy (single particle, 3D map); SEC (Superdex 200 10/300) fraction at an apparent MW of ~108 kDa, buffer H-300 (300 mM NaCl), 4°C; toroidal particles, 20 Å map from 4,587 particles; monomers to putative dimer

stoichiometry N [1]: 4 | stoichiometry N [2]: 2
Substance: N-terminal 6xHis-tagged HsCPAP^897−1338 (from UniProt Q9HC77 897-1338) (domain or fragment)
